{"source": "paper PMC7813410", "about": "“Intraperitoneal insulin administration in pigs: effect on circulating insulin and glucose levels” (BMJ Open Diabetes Research & Care, 2021)", "key": {"[1]": {"details": "in vitro model; cited from earlier work", "excerpt": "The liver is the major organ involved in glucose homeostasis."}, "pigs": {"system": "pigs", "assay": "Blood glucose after intraperitoneal insulin boluses in anesthetized pigs", "assay_type": "in vivo, pig", "details": "mean±SE", "procedure": "In every stall, a heating lamp was provided.\n(§1) The somatostatin analogs were injected 1 hour before the first insulin bolus of the day. 0.4 mg octreotide was injected intravenously and 0.3 mg pasireotide was injected subcutaneously. The octreotide injections were repeated hourly and the pasireotide injections were repeated every 3 hours during the trial.\nTo prevent hypoglycemia, a continuous venous glucose infusion was provided through the left internal jugular vein and was continued for the duration of the experiment. The blood glucose levels were kept in the range of 4.5–5.5 mmol/L before each insulin bolus was given.\nIn the first pig, we tested different glucose infusion rates to identify a suitable rate. In the remaining seven pigs, a constant glucose infusion rate of 8 g/hour was used throughout the experiments.\nFor both trials, arterial blood samples for glucose analysis were collected in heparinized syringes (LEO Pharma). Samples were analyzed on a Radiometer ABL 725 blood gas analyzer (Radiometer Medical, Brønshøj, Denmark). All blood samples were placed on ice immediately after extraction from the pigs. Most samples were analyzed consecutively, but some samples were stored on ice for a maximum of 20 min before analysis.\nIn the main trial, samples were collected 10, 5 and 1 min prior to the first somatostatin analog injection, every 10 min for the first hour after Sandostatin injection, every minute for the first 10 min after the insulin bolus, and every fifth minute thereafter for the next 110 min.\nFrom the main trial, data from the last seven pigs were used for statistical analysis. We assumed the glucose levels at −5 min to be the baseline glucose levels at the start before each bolus (online supplemental figure S1).\nTreatment and time were the sources of variation. […] Statistics were performed with GraphPad Prism V.8 Statistics."}, "[2]": {"excerpt": "We also performed an additional trial to investigate subcutaneous insulin dynamics and effect on blood glucose levels, performed under similar conditions. For more details, see online supplemental material section 'Additional trial'. In short, between May 2019 and January 2020, three juvenile, non-diabetic, cross-bred male pigs (50% Landswine, 50% Yorkshire) approximately 3 months of age weighing 39.5±4.3 kg were brought from the same local farmer and kept in the conditions as in the main trial.\nIn the additional trial, two pigs received 10 U subcutaneous insulin boluses and one pig received a 5 U subcutaneous insulin bolus. All subcutaneous insulin boluses were performed as the first bolus of the day.\nAdditionally, all pigs received an intraperitoneal glucagon bolus (150 µg) 40 min after the insulin bolus.\n(§2) In the main trial, all pigs (n=7) received three insulin boluses (2, 5 and 10 U) in the upper right intraperitoneal space. In the additional trial, insulin boluses were injected into the subcutaneous tissues in the left side of the neck. Two pigs received 10 U boluses and one pig received a 5 U bolus.\n(§3) In both trials, blood samples for insulin analysis were stored on ice for at least 10 min before centrifugation (10 min at 2.000× rpm in a refrigerated centrifuge). Plasma was collected from the samples immediately after centrifugation and transferred into empty Eppendorf Tubes and temporarily stored at −20°C. At the end of each trial day, plasma samples were stored at −80°C.\n(§4) Plasma insulin was analyzed as singles by Iso-Insulin ELISA kit (10-1128-01, Mercodia, Uppsala, Sweden). Suppression of endogenous insulin secretion was verified by analyses of Porcine Insulin ELISA (10-1200-01, Mercodia) according to the manufacturer’s protocol. The results were converted from mU/L to pmol/L by a conversion factor 6, as recommended by the manufacturer. The lowest detectable insulin concentration for the Iso-Insulin ELISA kit was <3.0 mU/L (18 pmol/L) and for Porcine Insulin ELISA was <2.3 mU/L (13.8 pmol/L)."}, "[3]": {"excerpt": "Between January 2017 and August 2018, eight juvenile, non-diabetic, cross-bred pigs (50% Landswine, 50% Yorkshire) approximately 3 months of age (one male (36.2 kg) and seven females (39.5±2.7 kg)) were brought from the same local farmer approximately 1 week before the trials and acclimatized to the staff and new environment. Whenever possible, the pigs were kept in groups in a common stall (11.2 m^2) with concrete floor covered with woodchips. In every stall, a heating lamp was provided. In the facility, a day-night photoperiod (night: 21:00–05:00, dawn: 05:00–07:00, day: 07:00–19:00, dusk: 19:00–21:00) was maintained at 22°C and a relative humidity of 45%±5%. The pigs were fed standard food (Format Vekst 100, Felleskjøpet, Norway) and fresh water was available ad libitum. Food was removed 17 hours before the start of the trial while water was available until anesthesia was initiated.\nIn the main trial, the first pig was used to obtain information about optimal infusion rate of glucose to maintain stable glucose levels throughout the trial days. The second pig was used to confirm the chosen infusion rate. The remaining six pigs were used to study the pharmacokinetics and pharmacodynamics of intraperitoneally delivered insulin boluses. However, all pigs received boluses of 2, 5 and 10 U of insulin (1 U/s) in the upper right quadrant of the intraperitoneal cavity. The order of insulin boluses for the first two pigs was 2, 5 and 10 U. The order of boluses for the last six pigs was randomized.[6] There were at least 2 hours and 30 min between each bolus.\nAt the start of every trial day, a fresh insulin analog (100 U/mL, NovoRapid, Novo Nordisk, Denmark) was inserted in an insulin pump (Animas Vibe).\nas §2, §3, §4\nDelta values collected from the main trial with different insulin boluses (2, 5 and 10 U) in the pigs were analyzed. In order to estimate possible significant differences in circulating insulin and blood glucose levels after IP insulin boluses, a two-way repeated measures analysis of variance was performed. Treatment and time were the sources of variation. Tukey’s multiple comparisons test was used for distinguishing comparisons between different insulin boluses. All non-measurable insulin values were set at 18 pmol/L. All treatments are compared as models; therefore, comparison between unequal groups is allowed. Statistics were performed with GraphPad Prism V.8 Statistics. All values are given as mean±SD, unless stated otherwise. Differences between the groups were considered significant if p≤0.05.", "remark": "listed apart in the source"}, "[4]": {"system": "endogenous insulin secretion", "assay": "Suppression of endogenous insulin secretion by somatostatin analogs (Porcine Insulin ELISA)", "assay_type": "in vivo, pig", "details": "octreotide 0.4 mg IV hourly together with pasireotide 0.3 mg SC every 3 hours, pigs, no detectable levels", "procedure": "To suppress the endogenous insulin and glucagon secretion, all pigs received the somatostatin analogs octreotide (Sandostatin 200 µg/mL, Novartis Europharm, UK) and pasireotide (Signifor 0.3 mg/mL, Novartis Europharm).\nas §1"}, "[5]": {"details": "5 U subcutaneous bolus, n=1 pig"}, "[6]": {"details": "10 U subcutaneous boluses, n=2 pigs"}}, "note": "Like-named read-outs stand apart in the source and are kept apart here.", "data": [{"substance": "insulin: fresh insulin analog (100 U/mL, NovoRapid, Novo Nordisk, Denmark) delivered by insulin pump", "values": [{"measurement": "hepatic first-pass effect", "setting": "[1]", "result": "up to 80%"}, {"measurement": "decrease of estimated mean blood glucose level after 5 U compared with 2 U intraperitoneal insulin boluses", "setting": "pigs; 5 U vs 2 U IP bolus, anesthetized non-diabetic pigs, n=7, 120 min after bolus, glucose infusion 8 g/hour, 95% CI 0.31 to 0.65, p<0.0001", "result": "0.48 ± 0.07", "unit": "mmol/L"}, {"measurement": "decrease of estimated mean blood glucose level after 10 U compared with 2 U intraperitoneal insulin boluses", "setting": "pigs; 10 U vs 2 U IP bolus, anesthetized non-diabetic pigs, n=7, 120 min after bolus, glucose infusion 8 g/hour, 95% CI 0.44 to 0.79, p<0.0001", "result": "0.61 ± 0.07", "unit": "mmol/L"}, {"measurement": "change of mean blood glucose level after 10 U compared with 5 U intraperitoneal insulin boluses", "setting": "pigs; 10 U vs 5 U IP bolus, n=7 pigs, 95% CI −0.04 to 0.30, p=0.184, not different", "result": "0.13 ± 0.07", "unit": "mmol/L"}, {"measurement": "time after bolus at which insulin level was increased", "setting": "[2]; [5]", "result": 5, "unit": "min"}, {"measurement": "time at which insulin levels were still elevated", "setting": "[2]; [5]", "result": 140, "unit": "min"}, {"measurement": "time after boluses at which mean insulin level was increased", "setting": "[2]; [6]", "result": 5, "unit": "min"}, {"measurement": "time at which insulin levels were still elevated", "setting": "[2]; [6]", "result": 140, "unit": "min"}, {"measurement": "mean circulating insulin level after subcutaneous compared with intraperitoneal insulin boluses", "setting": "[2]; subcutaneous (5 U n=1, 10 U n=2) vs IP boluses (n=7), p value not calculated", "result": "increased more"}, {"measurement": "effect on mean circulating insulin level", "setting": "[3]; 2 U IP bolus, n=7 pigs", "result": "did not increase"}, {"measurement": "effect on mean circulating insulin level", "setting": "[3]; 5 U IP bolus, n=7 pigs", "result": "did not increase"}, {"measurement": "mean circulating insulin levels after 5 U compared with 2 U intraperitoneal insulin boluses", "setting": "[3]; 5 U vs 2 U IP bolus, n=7 pigs, p=0.89", "result": "not different"}, {"measurement": "time after which mean circulating insulin level was close to baseline", "setting": "[3]; 10 U IP bolus, n=7 pigs", "result": 80, "unit": "min"}, {"measurement": "time after which mean insulin level started to increase", "setting": "[3]; 10 U IP bolus, n=7 pigs", "result": 10, "unit": "min"}, {"measurement": "increase of mean circulating insulin level after 10 U compared with 2 U intraperitoneal insulin boluses", "setting": "[3]; 10 U vs 2 U IP bolus, n=7 pigs, plasma, Iso-Insulin ELISA, mean±SE, 95% CI 1.99 to 5.37, p<0.0001", "result": "7.89 ± 1.07", "unit": "pmol/L"}, {"measurement": "increase of mean circulating insulin level after 10 U compared with 5 U intraperitoneal insulin boluses", "setting": "[3]; 10 U vs 5 U IP bolus, n=7 pigs, plasma, Iso-Insulin ELISA, mean±SE, 95% CI 5.86 to 10.89, p<0.0001", "result": "8.37 ± 1.07", "unit": "pmol/L"}, {"measurement": "first-pass effect in the liver", "setting": "[3]; after the smaller (2 and 5 U) IP insulin boluses, inferred from circulating insulin levels in pigs", "result": "~100", "unit": "%"}]}, {"substance": "octreotide", "values": [{"measurement": "endogenous insulin levels during the experiments", "setting": "[4]", "result": "< 13.8", "unit": "pmol/L"}]}, {"substance": "pasireotide", "values": [{"measurement": "endogenous insulin levels during the experiments", "setting": "[4]", "result": "< 13.8", "unit": "pmol/L"}]}]}
